Measurements reported in patent US20200164069A1 (BOSTON PHARMACEUTICALS, published 2020).

How the values were obtained:
IL-7 = target: T1, IL-7 (UniProt P13232 26-177); assay: ELISA on plate-coated cytokine (2 µg/ml)
T1 sequence (looked up): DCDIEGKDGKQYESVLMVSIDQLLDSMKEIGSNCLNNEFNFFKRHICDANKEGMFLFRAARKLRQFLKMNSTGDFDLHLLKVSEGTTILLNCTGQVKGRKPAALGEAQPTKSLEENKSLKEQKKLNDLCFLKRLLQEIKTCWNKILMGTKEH
Procedure: (§1) ELISA was used to test cross reactivity of lead clones. Cytokines tested include 11-2, IL-4, IL-7, IL-9, and IL-15. Maxisorp ELISA plate (NUNC) was coated with 2 μg/ml of different cytokines in PBS at 4° C. overnight. The plate was then blocked with 3% BSA in PBST (PBS+0.1% Tween) at room temperature for one hour. Purified lead clone IgGs were serially diluted in PBST+3% BSA and the mixture was then added to each ELISA plate well and further incubated at room temperature for half an hour. After washing, secondary antibody-HRP was added to each well for 1 hour. Wells were washed first with PBST and then with PBS and the TMB solution from Pierce was added to detect the secondary antibody. After 5′ the reaction was stopped by the addition of 1N sulfuric acid. The plates were then read in an ELISA reader at 450 nm to detect the binding.

IL-4 = target: T2, IL-4 (UniProt P05112 25-153); assay: ELISA on plate-coated cytokine (2 µg/ml)
T2 sequence (looked up): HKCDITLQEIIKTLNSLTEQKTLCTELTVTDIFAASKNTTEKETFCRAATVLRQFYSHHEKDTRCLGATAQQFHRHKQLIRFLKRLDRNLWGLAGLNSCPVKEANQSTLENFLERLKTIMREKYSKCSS
Procedure: as §1

IL-2 = IL-2 (UniProt P60568 21-153); assay: ELISA on plate-coated cytokine (2 µg/ml)
Procedure: as §1

[1] = target: T3, recombinant cynomolgus monkey IL-21 (cynomolgus monkey (Macaca fascicularis), UniProt Q9HBE4 30-162 (human entry), limits assumed); assay: cell-based or functional assay
recombinant human IL-21 [2] = target: T4, recombinant human IL-21 (human, UniProt Q9HBE4 30-162, limits assumed); assay: cell-based or functional assay
[3] = target: T3, recombinant cynomolgus monkey IL-21; assay: cell-based or functional assay; remark: listed apart in the source
recombinant human IL-21 [4] = target: T4, recombinant human IL-21; assay: cell-based or functional assay; remark: listed apart in the source
[5] = target: T3, recombinant cynomolgus monkey IL-21; assay: cell-based or functional assay; remark: listed apart in the source
recombinant human IL-21 [6] = target: T4, recombinant human IL-21; assay: cell-based or functional assay; remark: listed apart in the source
[7] = target: T3, recombinant cynomolgus monkey IL-21; assay: cell-based or functional assay; remark: listed apart in the source
recombinant human IL-21 [8] = target: T4, recombinant human IL-21; assay: cell-based or functional assay; remark: listed apart in the source
[9] = target: IL-21 (species not stated in the assay) (Homo sapiens (Human), UniProt Q9HBE4 25-162, Biotinylated in the competition ELISA of paragraph 259 (sites not given); unlabelled in the other results.); assay: cell-based or functional assay
recombinant human IL-21 [10] = target: T4, recombinant human IL-21; assay: method not stated for this clone (Table 2, column Kd hu)
IL-15 = IL-15 (UniProt P40933 49-162); assay: ELISA on plate-coated cytokine (2 µg/ml)
Procedure: as §1

T4 sequence (Q9HBE4 30-162 limits assumed, form in doubt): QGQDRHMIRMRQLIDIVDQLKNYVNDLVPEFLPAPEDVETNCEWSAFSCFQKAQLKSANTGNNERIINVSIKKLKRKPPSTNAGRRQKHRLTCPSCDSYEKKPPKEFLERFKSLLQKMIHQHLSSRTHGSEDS
IL-2, sequence (P60568 21-153 limits assumed): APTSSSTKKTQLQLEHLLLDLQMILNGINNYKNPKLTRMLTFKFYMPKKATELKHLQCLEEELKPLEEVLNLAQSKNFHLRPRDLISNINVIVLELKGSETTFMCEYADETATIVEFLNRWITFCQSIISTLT
T3 sequence (Q9HBE4 other isoform, or with tags, fused parts or gaps limits assumed): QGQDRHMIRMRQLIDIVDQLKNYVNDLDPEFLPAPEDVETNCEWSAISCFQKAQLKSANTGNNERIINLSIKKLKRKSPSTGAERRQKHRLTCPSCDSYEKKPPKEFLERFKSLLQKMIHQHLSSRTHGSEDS
IL-21 (species not stated in the assay), sequence (Q9HBE4 25-162 limits assumed): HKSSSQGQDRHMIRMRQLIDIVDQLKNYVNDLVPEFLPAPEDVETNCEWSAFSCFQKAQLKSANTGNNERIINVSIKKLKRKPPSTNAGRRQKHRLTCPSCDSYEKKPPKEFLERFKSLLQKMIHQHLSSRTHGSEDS
IL-15, sequence (P40933 49-162 limits assumed): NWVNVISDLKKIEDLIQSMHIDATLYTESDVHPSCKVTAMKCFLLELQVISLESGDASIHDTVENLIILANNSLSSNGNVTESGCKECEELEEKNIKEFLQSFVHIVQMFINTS

Binder	binding result (IL-7)	binding result (IL-4)	binding result (IL-2)	IC50 in NK-92 cell assay (IFNγ, 200 pM IL-21) [1]	IC50 in NK-92 cell assay (IFNγ, 200 pM IL-21) (recombinant human IL-21 [2])	IC50 in PC differentiation assay (2 nM IL-21) [3]	IC50 in PC differentiation assay (2 nM IL-21) (recombinant human IL-21 [4])	IC50 in pSTAT3 assay (human PBMCs, 20 pM IL-21) [5]	IC50 in pSTAT3 assay (human PBMCs, 20 pM IL-21) (recombinant human IL-21 [6])	inhibition of IgG production by human B cells [7]	IC50 of IL-21-induced proliferation of human naive CD4+ T cells (ATP, day 4) (recombinant human IL-21 [8])	inhibition of IgG production by human B cells (recombinant human IL-21 [8])	maximal inhibition in pSTAT3 assay [9]	Kd (recombinant human IL-21 [10])	binding result (IL-15)
murine monoclonal antibody 19E3 (antibody, V domains shown, also called 19E3.1) VH: QVQLQQPGSELVMPGASVKMSCKASGYIFTDYWMHWVKQRPGQGLEWIGTIDPSDNYTIYSQNFKGKATLTVDESSSTAYMLLSSLTSEDSAVYFCARYGFAMDYWGQGTSVTVSS VL: DIQLTQTTSSLSASLGDRVTISCRASQDISNFLNWYQQTPDGTVKLLIYYTSRLHSGVPSRFSGSGSGTDYSLTISNLEQEDIATYFCQQGHTLPRTFGGGTKLEIK	no binding	no binding	no binding	37 pM	41 pM	0.775 nM	1.53 nM	5.99 pM	3.15 pM	> 99%	0.061 nM	> 99%	100%	–	–
9F11-4 (antibody, IgG1, V domains shown) VH: EVQLVESGGGLVQPGGSLRLSCAASGFTFSDAWMDWVRQAPGKGLEWVAEIRSEADNHPTYYAESVKGRFTISRDDSKNSLYLQMNSLKTEDTAVYYCTEYDYEGFVHWGQGTLVTVSS VL: DIVMTQTPLSLSVTPGQPASISCRASKSVSTYGYSYMHWYLQKPGQPPQLLIYLASNLESGVPDRFSGSGSGTDFTLKISRVEAEDVGVYYCQHSRELPLTFGQGTKLEIK	–	–	–	–	–	–	–	52.2 pM	12.1 pM	–	–	–	100%	–	–
9F11-6 (antibody, IgG1, V domains shown) VH: EVQLVESGGGLVQPGGSLRLSCAASGFTFSDAWMDWVRQAPGKGLEWVAEIRSEADNHPTYYAESVKGRFTISRDDSKNSVYLQMNSLKTEDTAVYYCTEYDYEGFVHWGQGTLVTVSS VL: DIVMTQTPLSLSVTPGQPASISCRASKSVSTYGYSYMHWYLQKPGQPPQLLIYLASNLESGVPDRFSGSGSGTDFTLKISRVEAEDVGVYYCQHSRELPLTFGQGTKLEIK	–	–	–	–	–	–	–	50.8 pM	13.2 pM	–	–	–	100%	–	–
9F11-11 (antibody, IgG1, V domains shown) VH: EVQLVESGGGLVQPGGSLRLSCAASGFTFSDAWMDWVRQAPGKGLEWVAEIRSEADNHPTYYAESVKGRFTISRDDSKNSLYLQMNSLKTEDTAVYYCTEYDYEGFVHWGQGTLVTVSS VL: DIVLTQTPLSLSVTPGQPASISCRASKSVSTYGYSYMHWYLQKPGQPPQLLIYLASNLESGVPDRFSGSGSGTDFTLKISRVEAEDVGVYYCQHSRELPLTFGQGTKLEIK	–	–	–	–	–	–	–	45.9 pM	13.6 pM	–	–	–	100%	–	–
murine monoclonal antibody 9H10 (antibody, V domains shown, also called 9H10.1) VH: EVQLQQFGAEVVKPGASVKMSCKASGYTFTDYNMNWVKQSHEKSLEWIGDIHPKFHSTNYNQKFKGKATLTIDTSSSTAYMELRNLTSEDTAVYYCARVGNYVYFVMDYWGQGTSVTVSS VL: SIVMTQTPKFLLVSAGDRVTITCKASQSVSNDVAWYQQKPGQSPKLLIYYASNRYTGVPDRFSGSGYGTDFTFTISTVQAEDLAVYFCQQDYTSPWTFGGGTKLEIK	no binding	no binding	no binding	3.43 nM	20.2 nM	29.8 nM	116 nM	160 pM	328 pM	–	–	–	100%	0.108 nM	–
murine monoclonal antibody 8B6 (antibody, V domains shown, also called 8B6.1) VH: EVQLVESGGGSVKPGGSLKLSCAASGLTFSHYYMYWVRQTPEKRLEWVAIISDGGDYTHYSDSVKGRFTISRDNAKNNLYLQMSSLQSEDTAMYYCAGDYGYGYEGWFAYWGQGTLVTVST VL: DIVMTQSQKFMSTSVGDRVSVTCKASQNVDTYVAWYQQKPGQSPKALIYSTSYRYSGVPDRFTGSGSGTDFTLTISNVQSEDLAEYFCQQYNSYPWTFGGGTKLEIK	no binding	no binding	no binding	771 pM	944 pM	8.9 nM	> 200 nM	228 pM	115 pM	–	–	–	100%	–	no binding
K44VHa6-N56Q (antibody, IgG1, V domains shown) VH: QVQLVQSGAEVKKPGASVKVSCKASGYTFTDYWMHWVRQAPGQGLEWMGTIDPSDQYTIYSQNFKGRVTMTVDESTSTVYMELSSLRSEDTAVYYCARYGFAMDYWGQGTLVTVSS VL: DIQLTQSPSSLSASVGDRVTITCRASQDISNFLNWYQQKPGKAVKLLIYYTSRLHSGVPSRFSGSGSGTDYTLTISSLQPEDFATYYCQQGHTLPRTFGGGTKVEIKR	no binding	no binding	no binding	60.3 pM	54.8 pM	0.659 nM	0.573 nM	9.75 pM	5.5 pM	–	–	–	100%	0.000245 nM	–
K2Ha-N56Q (antibody, human IgG1, kappa, V domains shown) VH: QVQLVQSGAEVKKPGASVKVSCKASGYTFTDYWMHWVRQAPGQGLEWMGTIDPSDQYTIYSQNFKGRVTMTRDTSTSTVYMELSSLRSEDTAVYYCARYGFAMDYWGQGTLVTVSS VL: DIQLTQSPSSLSASVGDRVTITCRASQDISNFLNWYQQKPGKAVKLLIYYTSRLHSGVPSRFSGSGSGTDYTLTISSLQPEDFATYFCQQGHTLPRTFGGGTKVEIKR	no binding	no binding	no binding	83.4 pM	99 pM	1.32 nM	0.618 nM	15.6 pM	18.7 pM	–	–	–	100%	0.000403 nM	–
